Measured values taken from the supplement of paper PMC10567573.

B1: DYRK1B (parent)
chain: YQGPGTRRLQEVLGVQTGGPGGRR

Variants of: B1
Assay: protein stability index of a GFP-peptide fusion (GPS, HEK-293T) (PSI 1-6); higher = more stable
Settings: c terminus: a fixed tail appended
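Also: lentivirally expressed fusions sorted by FACS into six bins by GFP to DsRed ratio, PSI derived from sequencing read proportions per bin multiplied by bin number.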

Protein stability index of substitutions, site by site:
R7: N 2.65, K 3.06, M 3.21, W 1.77, V 3.03
R8: I 2.75, T 2.97, D 3.55, E 4.51, S 3.73, L 1.91, V 2.66, H 4.21, Y 1.91, W 3.27, G 3.14, A 3.24, M 2.35, N 3.45, C 2.21, P 3.49, Q 3.67, K 2.9
L9: E 3.79, I 2.97, D 3.94, W 1.36, P 4, R 3.9, Y 3.06, S 4.65, G 4.47, C 3.21, A 4.03, K 4.06, M 3.71, Q 4.31, N 3.61, F 2.67, H 2.81, T 4.27, V 3.75
G3: T 3.52, I 2.98, P 3.39, Q 3.11, S 3.44, V 2.38, R 2.25, N 3.71, M 3.03, D 3.83, H 3.81, L 3.23, E 4.32, C 3.58, A 3.31, F 2.77, K 2.79, W 3.1, Y 2.48
Q2: I 2.52, G 3.39, Y 3.7, L 2.5, N 2.26, D 4.23, R 3.87, E 4.23, S 1.83, F 3.22, C 2.66, W 2.95, H 2.26, P 3.44, M 3.83, K 4.18, T 3.12
T6: H 2.67, Y 1.77, G 3.32, C 2.32, R 3.51, W 2.17, E 3.47, P 3.04, D 3.79, A 2.71, L 2.37, K 2.33, I 2.87, S 2.54, V 3.02, Q 3.4, M 3.28, N 2.68, F 2.88
Y1: G 4.41, R 4.22, N 4.63, L 4.32, P 5.36, D 4.91, Q 4.04, C 4.48, A 4.7, S 4.96, V 4.28, T 4.72, M 4.18, I 4.33, E 4.83, H 4.78, K 3.84, W 3.9, F 3.84
P4: N 2.69, A 3.01, E 3.3, H 2.79, D 2.81, R 2.78, S 2.32, W 1.76, Q 2.88, T 2.79, Y 2.35, M 1.91, L 2.39, K 2.63, F 1.68, V 3.14, C 2.29, I 2.58
G5: V 3.4, W 1.08, D 3.69, M 2.46, C 3.38, E 3.74, P 2.8, K 2.94, Y 2.34, A 3.44, H 3.17, Q 4.42, S 3.42, I 2.76, N 4.4, R 2.58, T 3.22, F 1.92
Q10: G 1.96, S 3.57, F 2.34, D 3.3, N 3.85, H 2.98, A 1.95, K 3.3, I 2.66, R 2.91, M 2.82, E 3.82, C 2.72, L 2.28, P 4.21
